Reference: US20250289894A1 (MORPHIC THERAPEUTIC, published 2025)
Where two headings read alike, the source gives them in different places.

Columns and labels:
[1] = target: Human α7β1 Ecto Domain (human) (UniProt Q13683); experiment: SPR
[2] = target: T1, Cynomolgus Monkey α7β1 Ecto Domain (cynomolgus monkey, UniProt A0A2K5UNI0 34-1082; H9FU31 21-728); experiment: SPR
T1 construct: extracellular domain; Heterodimer

Human Leg α7 = target: T2, Human Leg α7 (human, UniProt Q13683 679-1078); experiment: SPR
T2 construct: also called human α7 leg; leg domain of human α7
T2 sequence: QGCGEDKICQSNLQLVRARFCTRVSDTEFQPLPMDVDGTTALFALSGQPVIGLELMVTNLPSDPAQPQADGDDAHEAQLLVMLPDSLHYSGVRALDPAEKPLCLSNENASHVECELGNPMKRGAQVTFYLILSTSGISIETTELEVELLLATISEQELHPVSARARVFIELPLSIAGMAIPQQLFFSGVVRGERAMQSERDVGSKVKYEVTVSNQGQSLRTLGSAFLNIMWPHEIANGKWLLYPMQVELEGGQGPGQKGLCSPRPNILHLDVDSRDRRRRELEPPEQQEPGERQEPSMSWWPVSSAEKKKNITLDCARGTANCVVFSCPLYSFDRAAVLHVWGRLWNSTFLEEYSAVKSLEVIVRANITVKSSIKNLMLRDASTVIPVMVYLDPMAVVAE

Cynomolgus Monkey Leg α7 = target: T3, Cynomolgus Monkey Leg α7 (cynomolgus monkey, UniProt A0A2K5UNI0 679-1078); experiment: SPR
T3 construct: domain: Leg α7
T3 sequence: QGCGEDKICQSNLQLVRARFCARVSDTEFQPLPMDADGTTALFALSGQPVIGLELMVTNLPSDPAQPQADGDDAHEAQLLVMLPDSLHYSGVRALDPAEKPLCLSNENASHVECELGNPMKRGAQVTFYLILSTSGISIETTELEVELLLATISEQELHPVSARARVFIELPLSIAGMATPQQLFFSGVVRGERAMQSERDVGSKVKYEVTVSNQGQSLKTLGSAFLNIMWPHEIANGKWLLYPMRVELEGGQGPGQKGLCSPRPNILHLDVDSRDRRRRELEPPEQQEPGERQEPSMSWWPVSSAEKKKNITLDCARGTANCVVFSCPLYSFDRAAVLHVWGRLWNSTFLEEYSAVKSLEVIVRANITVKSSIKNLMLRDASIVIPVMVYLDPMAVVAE

Mouse Leg α7 = target: T4, Mouse Leg α7 (mouse, UniProt Q61738 679-1076, limits assumed); experiment: SPR
T4 construct: domain: Leg α7
T4 sequence (looked up): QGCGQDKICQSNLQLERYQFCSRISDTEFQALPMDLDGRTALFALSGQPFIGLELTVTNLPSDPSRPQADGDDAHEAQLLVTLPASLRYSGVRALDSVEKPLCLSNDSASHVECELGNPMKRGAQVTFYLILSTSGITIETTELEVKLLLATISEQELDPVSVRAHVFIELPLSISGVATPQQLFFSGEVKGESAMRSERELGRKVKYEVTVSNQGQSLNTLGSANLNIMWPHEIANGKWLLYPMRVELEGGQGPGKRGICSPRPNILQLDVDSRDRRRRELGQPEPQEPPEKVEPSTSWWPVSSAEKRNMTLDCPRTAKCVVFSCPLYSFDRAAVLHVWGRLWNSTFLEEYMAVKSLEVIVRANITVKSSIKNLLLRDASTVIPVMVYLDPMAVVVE

Human α7β1 (human) [3] = target: Human α7β1 (human) (UniProt Q13683); experiment: cell-based or functional assay
[4] = target: Human α7β1 Ecto Domain (human) (UniProt Q13683); experiment: cell-based or functional assay
Human α7β1 (human) [5] = target: Human α7β1 (human) (UniProt Q13683); experiment: cell-based or functional assay; remark: listed apart in the source
Cynomolgus Monkey α7β1 = Cynomolgus Monkey α7β1 (cynomolgus monkey, UniProt A0A2K5UNI0 34-1181; H9FU31 21-798); experiment: cell-based or functional assay
Human α7β1 (human) [6] = target: Human α7β1 (human) (UniProt Q13683); experiment: cell binding, DMD myoblast cells, with Mn-BOP
human α7 calf-1 protein = target: T5, human α7 calf-1 protein (human, UniProt Q13683 688-848); experiment: binding ELISA, panel 'Human a7 Calf1 vs Ab2'
T5 construct: also called Calf-1 domain
T5 sequence: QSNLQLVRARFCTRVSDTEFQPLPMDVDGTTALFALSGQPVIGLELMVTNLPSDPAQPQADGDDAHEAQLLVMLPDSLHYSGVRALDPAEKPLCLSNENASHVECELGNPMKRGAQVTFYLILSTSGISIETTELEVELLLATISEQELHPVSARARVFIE

[7] = target: Mouse α7β1 Ecto Domain (mouse) (UniProt Q61738); experiment: SPR
[8] = target: Mouse α7β1 Ecto Domain (mouse) (UniProt Q61738); experiment: cell-based or functional assay
Mouse α7β1 [9] = target: T6, Mouse α7β1 (mouse, UniProt Q61738 34-1179; P09055 21-798); experiment: cell-based or functional assay
T6 sequence (Q61738 34-1179, chain 1 of 2): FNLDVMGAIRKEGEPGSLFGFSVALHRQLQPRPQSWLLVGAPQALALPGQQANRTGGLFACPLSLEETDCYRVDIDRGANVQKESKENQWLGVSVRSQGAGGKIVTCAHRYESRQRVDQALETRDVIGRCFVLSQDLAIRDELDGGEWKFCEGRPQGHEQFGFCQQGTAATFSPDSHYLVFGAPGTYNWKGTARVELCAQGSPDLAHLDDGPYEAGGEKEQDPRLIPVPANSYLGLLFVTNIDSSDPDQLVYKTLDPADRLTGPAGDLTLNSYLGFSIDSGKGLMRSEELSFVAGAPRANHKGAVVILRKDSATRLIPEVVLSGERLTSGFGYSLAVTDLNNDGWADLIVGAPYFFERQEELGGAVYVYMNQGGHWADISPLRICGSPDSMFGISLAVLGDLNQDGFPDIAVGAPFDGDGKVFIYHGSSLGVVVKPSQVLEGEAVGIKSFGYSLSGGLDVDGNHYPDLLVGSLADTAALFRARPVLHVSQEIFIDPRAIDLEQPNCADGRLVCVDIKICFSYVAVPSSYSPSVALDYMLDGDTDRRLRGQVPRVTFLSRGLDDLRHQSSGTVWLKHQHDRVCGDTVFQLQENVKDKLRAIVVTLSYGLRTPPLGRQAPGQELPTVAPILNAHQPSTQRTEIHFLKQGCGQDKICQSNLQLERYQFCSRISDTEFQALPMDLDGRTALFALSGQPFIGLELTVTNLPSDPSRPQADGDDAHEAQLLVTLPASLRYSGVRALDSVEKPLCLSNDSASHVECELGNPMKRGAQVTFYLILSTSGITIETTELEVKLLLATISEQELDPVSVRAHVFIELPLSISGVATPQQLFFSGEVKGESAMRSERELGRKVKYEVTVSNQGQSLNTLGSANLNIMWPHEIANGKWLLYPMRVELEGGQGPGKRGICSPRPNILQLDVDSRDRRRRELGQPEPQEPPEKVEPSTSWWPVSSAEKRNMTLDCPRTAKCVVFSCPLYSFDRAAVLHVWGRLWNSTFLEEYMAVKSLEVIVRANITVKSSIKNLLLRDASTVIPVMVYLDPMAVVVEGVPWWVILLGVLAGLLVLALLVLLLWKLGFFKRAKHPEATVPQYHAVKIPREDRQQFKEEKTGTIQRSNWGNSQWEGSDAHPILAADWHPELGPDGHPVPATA
T6 sequence (P09055 21-798, chain 2 of 2): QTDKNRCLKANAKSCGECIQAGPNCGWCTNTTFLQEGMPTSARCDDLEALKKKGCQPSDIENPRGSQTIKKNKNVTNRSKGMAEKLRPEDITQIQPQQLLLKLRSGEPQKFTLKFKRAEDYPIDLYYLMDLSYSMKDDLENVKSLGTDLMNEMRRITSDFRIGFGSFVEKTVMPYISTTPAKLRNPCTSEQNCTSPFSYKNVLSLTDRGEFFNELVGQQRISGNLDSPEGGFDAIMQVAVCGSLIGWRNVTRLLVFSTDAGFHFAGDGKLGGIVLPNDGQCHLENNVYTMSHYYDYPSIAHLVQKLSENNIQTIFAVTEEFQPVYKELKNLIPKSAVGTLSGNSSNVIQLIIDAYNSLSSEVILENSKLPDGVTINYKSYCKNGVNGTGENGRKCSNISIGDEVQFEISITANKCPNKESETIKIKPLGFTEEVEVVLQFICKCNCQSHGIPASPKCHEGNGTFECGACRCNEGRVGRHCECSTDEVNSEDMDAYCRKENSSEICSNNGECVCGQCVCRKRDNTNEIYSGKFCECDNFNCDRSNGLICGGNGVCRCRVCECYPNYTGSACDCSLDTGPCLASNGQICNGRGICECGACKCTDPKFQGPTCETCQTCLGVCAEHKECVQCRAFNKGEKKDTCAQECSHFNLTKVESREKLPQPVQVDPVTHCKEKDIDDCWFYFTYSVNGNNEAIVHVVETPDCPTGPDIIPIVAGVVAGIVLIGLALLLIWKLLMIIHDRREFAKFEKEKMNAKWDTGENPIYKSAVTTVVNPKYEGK

Mouse α7β1 [10] = target: T6, Mouse α7β1; experiment: cell binding, mouse α7β1 cells, with Mn-BOP

B1: Ab2 (antibody, V domains shown)
VH: EVQLVESGGGLVKPGGSLRLSCAASGFTFSSYTMNWVRQAPGKGLEWVSSISIVGNYIYYADSLKGRFTISRDNAKNSLYLQMNSLRAEDTAVYYCARRKWEHDAFDIWGQGTMVTVSS
VL: SSELTQDPAVSVALGQTVRITCQGDSLRSYYASWYQQKPGQAPVLVIYGKNNRPSGIPDRFSGSSSGNTASLTITGAQAEDEADFYCTSRDNSGNHVVFGGGTKLTVL
notes: Human anti-α7β1 antibody (hybridoma, human transgenic mouse); Ab28 and Ab29 are full chains with the same CDRs
[1]
  Kd: 5.69 nM
[2]
  Kd: 23 nM
Human Leg α7
  Kd: 1.58 nM
Cynomolgus Monkey Leg α7
  Kd: 19.4 nM
Mouse Leg α7
  binding result: no binding
Human α7β1 (human) [3]
  EC50 (nM), Cell Adhesion Assay: 5.1 nM
  EC50 (nM), ECIS, DMD-1 myoblast cells: 14.8 nM
  EC50 (nM), ECIS, DMD-2 myoblast cells: 41.1 nM
  EC50 (nM), ECIS, Non-DMD myoblast cells: 23.3 nM
  EC50 (nM), a7b1 activation assay: 2.91 nM
  EC50 (ug/mL), a7b1 activation assay: 0.44 µg/mL
  Emax (% TS2/16), a7b1 activation assay: 117 % TS2/16
  Emax (% of RefAb1), ECIS, DMD-1 myoblast cells: 289 % of RefAb1
  Emax (% of RefAb1), ECIS, DMD-2 myoblast cells: 240 % of RefAb1
  Emax (% of RefAb1), ECIS, Non-DMD myoblast cells: 124 % of RefAb1
  Emax (%*), Cell Adhesion Assay: 122%
  Emax (F.C.), a7b1 activation assay: 2.75 F.C.
[4]
  EC50 (nM), Solid Phase Assay: 0.4 nM
  Emax (%*), Solid Phase Assay: 97%
Human α7β1 (human) [5]
  EC50 (nm), a7b1 activation assay: 2.8 nM
  EC50 (ug/mL), a7b1 activation assay: 0.42 µg/mL
  Emax (% TS2/16), a7b1 activation assay: 100 % TS2/16
  Emax (F.C.), a7b1 activation assay: 2.09 F.C.
Cynomolgus Monkey α7β1
  EC50 (nM), Cell Adhesion Assay: 3.31 nM
  Emax (%*), Cell Adhesion Assay: 115%
Human α7β1 (human) [6]
  EC50: 41.1 nM
Human α7 calf-1 protein
  binding result: no binding

B2: Ab8 (antibody, V domains shown)
VH: QVPLQQSGPQLVRPGASVKISCKASGYSFTRYWMHWVKQRPGQGLDWIGKIDPSDSETRLNQEFRDKATLTVDKSSSTAYLQLSSPTSEDSAVYYCARGGYFGEGWYFDVWGAGTTVTVSS
VL: DVVMTQIPLSLPVSLGDQASISCRSSQSLVHRNGNTYLHWYLQKPGQSPKLLIYKVSNRFSGVPDRFSGSGSGTDFTLKISRVEAEDLGVYFCSQSTHVPWTFGGGTKLEIK
notes: Mouse anti-α7β1 antibody (hybridoma, α7 knock-out mouse); also called AbS
[1]
  Kd: 184 nM
[7]
  Kd: 5.46 nM
[2]
  Kd: 225 nM
Human Leg α7
  Kd: 25 nM
Cynomolgus Monkey Leg α7
  Kd: 32.3 nM
Mouse Leg α7
  Kd: 1.42 nM
Human α7β1 (human) [3]
  EC50 (nM), Cell Adhesion Assay (K562 cells expressing α7β1 on laminin-221): 3.94 nM
  EC50 (nM), ECIS, DMD-1 myoblast cells: 10 nM
  EC50 (nM), ECIS, DMD-2 myoblast cells: 32 nM
  EC50 (nM), ECIS, Non-DMD myoblast cells: 41.6 nM
  Emax (% of RefAb1), ECIS, DMD-1 myoblast cells: 264 % of RefAb1
  Emax (% of RefAb1), ECIS, DMD-2 myoblast cells: 130 % of RefAb1
  Emax (% of RefAb1), ECIS, Non-DMD myoblast cells: 100 % of RefAb1
  Emax (%*), Cell Adhesion Assay: 117%
[4]
  EC50 (nM), Solid Phase Assay (6xHis α7β1 ectodomain on coated laminin-221): 0.77 nM
  Emax (%*), Solid Phase Assay: 89%
[8]
  EC50 (nM), Solid Phase Assay: 1.55 nM
  Emax (%*), Solid Phase Assay: 148%
Cynomolgus Monkey α7β1
  EC50 (nM), Cell Adhesion Assay: 1.69 nM
  Emax (%*), Cell Adhesion Assay: 102%
Mouse α7β1 [9]
  EC50 (nM), Cell Adhesion Assay: 3.82 nM
  Emax (%*), Cell Adhesion Assay: 144%
Human α7β1 (human) [6]
  EC50: 32.6 nM
Mouse α7β1 [10]
  EC50: 22.6 nM
